The values that follow come from patent publication US20050113303.

For this data set, the target named is [D-Ala^2,Leu^5]enkephalin.

B1: recombinant human PEX protein (full-length, expressed from plasmid pPEX in COS-7 cells) (protein)
chain: MEAETGSSVETGKKANRGTRIALVVFVGGTLVLGTILFLVSQGLLSLQAKQEYCLKPECIEAAAAILSKVNLSVDPCDNFFRFACDGWISNNPIPEDMPSYGVYPWLRHNVDLKLKELLEKSISRRRDTEAIQKAKILYSSCMNEKAIEKADGKPLLHILRHSPFRWPVLESNIGPEGVWSERKFSLLQTLATFRGQYSNSVFIRLYVSPDDKASNEHILKLDQATLSLAVREDYLDNSTEAKSYRDALYKFMVDTAVLLGANSSRAEHDMKSVLRLEIKIAEIMIPHENRTSEAMYNKMNISELSAMIPQFDWLGYIKKVIDTRLYPHLKDISPSENVVVRVPQYFKDLFRILGSERKKTIDNYLVWRMVYSRIPNLSRRFQYRWLEFSRVIQGTTTLLPQRDKCVNFIESALPYVVGKMFVDVYFQEDKKEMMEELVEGVRWAFIDMLEKENEWMDAGTKRKAKEKARAVLAKVGYPEFIMNDTHVNEDLKAIKFSEADYFGNVLQTRKYLAQSDFFWLRKAVPKTEWFTNPTTVNAFYSASTNQIRFPAGELQKPFFWGTEYPRSLSYGAIGVIVGHEFTHGFDNNGRKYDKNGNLDPWWSTESEEKFKEKTKCMINQYSNYYWKKAGLNVKGKRTLGENIADNGGLREAFRAYRKWINDRRQGLEEPLLPGITFTNNQLFFLSYAHVRCNSYRPEAAREQVQIGAHSPPQFRVNGAISNFEEFQKAFNCPPNSTMNRGMDSCRLW
Regarding B1, the “production of Tyr-D-Ala-Gly from the substrate, HPLC” value is given as “production of Tyr-D-Ala-Gly from the substrate was evident only in NEP-expressing membrane preparations”.

B2: recombinant human NEP (neprilysin, expressed from human NEP cDNA in COS-7 cells) (protein)
chain: MESQMDITDINTPKPKKKQRWTPLEISLSVLVLLLTIIAVTMIALYATYDDGICKSSDCIKSAARLIQNMDATTEPCTDFFKYACGGWLKRNVIPETSSRYGNFDILRDELEVVLKDVLQEPKTEDIVAVQKAKALYRSCINESAIDSRGGEPLLKLLPDIYGWPVATENWEQKYGASWTAEKAIAQLNSKYGKKVLINLFVGTDDKNSVNHVIHIDQPRLGLPSRDYYECTGIYKEACTAYVDFMISVARLIRQEERLPIDENQLALEMNKVMELEKEIANATAKPEDRNDPMLLYNKMTLAQIQNNFSLEINGKPFSWLNFTNEIMSTVNISITNEEDVVVYAPEYLTKLKPILTKYSARDLQNLMSWRFIMDLVSSLSRTYKESRNAFRKALYGTTSETATWRRCANYVNGNMENAVGRLYVEAAFAGESKHVVEDLIAQIREVFIQTLDDLTWMDAETKKRAEEKALAIKERIGYPDDIVSNDNKLNNEYLELNYKEDEYFENIIQNLKFSQSKQLKKLREKVDKDEWISGAAVVNAFYSSGRNQIVFPAGILQPPFFSAQQSNSLNYGGIGMVIGHEITHGFDDNGRNFNKDGDLVDWWTQQSASNFKEQSQCMVYQYGNFSWDLAGGQHLNGINTLGENIADNGGLGQAYRAYQNYIKKNGEEKLLPGLDLNHKQLFFLNFAQVWCGTYRPEYAVNSIKTDVHSPGNFRIIGTLQNSAEFSEAFHCRKNSYMNPEKKCRVW
On to B2, for which the “production of Tyr-D-Ala-Gly from the substrate, HPLC” value is on record as “production of Tyr-D-Ala-Gly from the substrate was evident only in NEP-expressing membrane preparations”.
